The record followed here is publication PMC7831379.

The target in this assay is pre-stabilized HIV-1 CA A14C/E45C/W184A/M185A hexamer (HIV-1). Nature of the assay: crystal structure.

As for “pre-stabilized HIV-1 CA A14C/E45C/W184A/M185A hexamer (natural protein)”, the stoichiometry N (as a rule, a count of units in the complex or per binding partner) was 6.
